Experimental data: article PMC6089408

Target: Arabidopsis thaliana HAPLESS 2 ectodomain (AtHAP2e; aa 25-494) (Arabidopsis thaliana) (UniProt F4JP36)
Assay: crystal structure; AtHAP2e set to crystallize as a monomer; hanging drop, 293 K, 100 mM sodium citrate pH 4.5, 200 mM zinc acetate; space group P6_(3)

stoichiometry N: 3
Substance: Arabidopsis thaliana HAPLESS 2 ectodomain (AtHAP2e; aa 25-494) (from UniProt F4JP36 25-494) (domain or fragment)
